Assay results from publication PMC3538003, “A full-length recombinant Plasmodium falciparum PfRH5 protein induces inhibitory antibodies that are effective across common PfRH5 genetic variants” (Vaccine, 2013).
Where two headings read alike, the source gives them in different places.

Tests used:
[1] = biological target: 3D7 PfRH5-Cd4-biotin (P. falciparum Reticulocyte Binding Protein Homologue 5, 3D7 variant) (Plasmodium falciparum (3D7)); experiment: SPR; equilibrium analysis; biotinylated PfRH5-Cd4 captured on a streptavidin chip, biotinylated rat Cd4d3+4 in the reference cell; serial dilutions of basigin-Cd4-6H injected at 20 µl/min; BIAcore T100, 37°C, HBS-EP; regeneration with 2M NaCl
[2] = biological target: 7G8 PfRH5-Cd4-biotin (P. falciparum Reticulocyte Binding Protein Homologue 5, 7G8 variant) (Plasmodium falciparum (7G8)); experiment: as above
[3] = biological target: GB4 PfRH5-Cd4-biotin (P. falciparum Reticulocyte Binding Protein Homologue 5, GB4 variant) (Plasmodium falciparum (GB4)); experiment: as above
[4] = biological target: 7G8 PfRH5-Cd4-biotin (P. falciparum Reticulocyte Binding Protein Homologue 5, 7G8 variant) (Plasmodium falciparum (7G8)); experiment: as above; remark: listed apart in the source
[5] = biological target: GB4 PfRH5-Cd4-biotin (P. falciparum Reticulocyte Binding Protein Homologue 5, GB4 variant) (Plasmodium falciparum (GB4)); experiment: as above; remark: listed apart in the source
[6] = biological target: GB4 PfRH5-Cd4-biotin (P. falciparum Reticulocyte Binding Protein Homologue 5, GB4 variant) (Plasmodium falciparum (GB4)); experiment: as above; remark: listed apart in the source
[7] = biological target: 3D7 PfRH5-Cd4-biotin (P. falciparum Reticulocyte Binding Protein Homologue 5, 3D7 variant) (Plasmodium falciparum (3D7)); experiment: SPR; kinetic analysis, simple 1:1 model fitted globally; biotinylated PfRH5-Cd4 captured on a streptavidin chip, biotinylated rat Cd4d3+4 in the reference cell; serial dilutions of basigin-Cd4-6H injected at 100 µl/min; BIAcore T100, 37°C, HBS-EP; regeneration with 2M NaCl
[8] = biological target: 3D7 PfRH5-Cd4-biotin (P. falciparum Reticulocyte Binding Protein Homologue 5, 3D7 variant) (Plasmodium falciparum (3D7)); experiment: as above; remark: listed apart in the source
[9] = biological target: 3D7 PfRH5-Cd4-biotin (P. falciparum Reticulocyte Binding Protein Homologue 5, 3D7 variant) (Plasmodium falciparum (3D7)); experiment: as above; remark: listed apart in the source
[10] = biological target: 7G8 PfRH5-Cd4-biotin (P. falciparum Reticulocyte Binding Protein Homologue 5, 7G8 variant) (Plasmodium falciparum (7G8)); experiment: as above
[11] = biological target: GB4 PfRH5-Cd4-biotin (P. falciparum Reticulocyte Binding Protein Homologue 5, GB4 variant) (Plasmodium falciparum (GB4)); experiment: as above
[12] = biological target: 7G8 PfRH5-Cd4-biotin (P. falciparum Reticulocyte Binding Protein Homologue 5, 7G8 variant) (Plasmodium falciparum (7G8)); experiment: as above; remark: listed apart in the source
[13] = biological target: 7G8 PfRH5-Cd4-biotin (P. falciparum Reticulocyte Binding Protein Homologue 5, 7G8 variant) (Plasmodium falciparum (7G8)); experiment: as above; remark: listed apart in the source
[14] = biological target: GB4 PfRH5-Cd4-biotin (P. falciparum Reticulocyte Binding Protein Homologue 5, GB4 variant) (Plasmodium falciparum (GB4)); experiment: as above; remark: listed apart in the source
[15] = biological target: GB4 PfRH5-Cd4-biotin (P. falciparum Reticulocyte Binding Protein Homologue 5, GB4 variant) (Plasmodium falciparum (GB4)); experiment: as above; remark: listed apart in the source
[16] = biological target: human basigin extracellular region, soluble Cd4d3+4-6H-tagged (basigin-Cd4-6H) (human, UniProt P35613 138-325); experiment: SPR; BIAcore T100; monomeric biotinylated PfRH5-Cd4 bait captured on a streptavidin-coated chip, Cd4-biotin in the reference flow cell; serial dilutions of purified basigin-Cd4-6H injected at 20 ul/min (equilibrium) or 100 ul/min (kinetics); Langmuir isotherm fit; conditions: both partners purified

basigin-L-Cd4d3+4-6H (extracellular region of human basigin) (from UniProt P35613 138-325) (domain or fragment)
Kd [1]: 1600 nM
Kd [2]: 1000 nM
Kd [3]: 1100 nM
Kd [4]: 800 nM
Kd [5]: 1000 nM
Kd [6]: 800 nM
koff [7]: 0.238 s⁻¹
kon [7]: 93000 M⁻¹ s⁻¹
koff [8]: 0.236 s⁻¹
kon [8]: 95600 M⁻¹ s⁻¹
koff [9]: 0.24 s⁻¹
kon [9]: 89600 M⁻¹ s⁻¹
koff [10]: 0.256 s⁻¹
kon [10]: 128000 M⁻¹ s⁻¹
koff [11]: 0.216 s⁻¹
kon [11]: 118000 M⁻¹ s⁻¹
koff [12]: 0.251 s⁻¹
kon [12]: 125000 M⁻¹ s⁻¹
koff [13]: 0.245 s⁻¹
kon [13]: 122000 M⁻¹ s⁻¹
koff [14]: 0.23 s⁻¹
kon [14]: 110000 M⁻¹ s⁻¹
koff [15]: 0.244 s⁻¹
kon [15]: 95900 M⁻¹ s⁻¹

B1: 7G8 PfRH5-Cd4-biotin (P. falciparum Reticulocyte Binding Protein Homologue 5, 7G8 variant) (ligand)
chain: FENAIKKTKNQENNLALLPIKSTEEEKDDIKNGKDIKKEIDNDKENIKTNNAKDHSTYIKSYLNTNVNDGLKYLFIPSHNSFIKKYSVFNQINDGMLLNEKNDVKNNEDYKNVDYKNVNFLQYHFKELSNYNIANSIDILQEKEGHLDFVIIPHYTFLDYYKHLSYNSIYHKSSTYGKYIAVDAFIKKINEAYDKVKSKCNDIKNDLIATIKKLEHPYDINNKNDDSYRYDISEEIDDKSEETDDETEEVEDSIQDTDSNHAPSNKKKNDLMNRAFKKMMDEYNTKKKKLIKCIKNHENDFNKICMDMKNYGTNLFEQLSCYNNNFCNTNGIRYHYDEYIHKLILSVKSKNLNKDLSDMTNILQQSELLLTNLNKKMGSYIYIDTIKFIHKEMKHIFNRIEYHTKIINDKTKIIQDKIKLNIWRTFQKDELLKRILDMSNEYSLFITSDHLRQMLYNTFYSKEKHLNNIFHHLIYVLQMKFNDVPIKMEYFQTYKKNKPLTQ
modifications: monobiotinylated (biotin)
Kd [16]: 900 nM
